# Where two headings read alike, the source gives them in different places.
# T1: MERS-CoV RBD (MERS-CoV, UniProt K9N5Q8 367-606)
# T1 sequence: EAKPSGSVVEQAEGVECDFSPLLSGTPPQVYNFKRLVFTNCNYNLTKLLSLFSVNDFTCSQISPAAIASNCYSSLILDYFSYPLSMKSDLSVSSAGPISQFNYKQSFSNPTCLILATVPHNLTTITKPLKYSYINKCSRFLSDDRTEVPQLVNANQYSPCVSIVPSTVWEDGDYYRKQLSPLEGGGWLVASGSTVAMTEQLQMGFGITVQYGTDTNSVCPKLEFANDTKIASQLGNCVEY
# B1: No. 139 항체 (Full IgG) (antibody, V domains shown)
# VH: QITLKESGPTLVKPTQTLTLTCSFSGFSLSTSGVGVGWIRQPPGKALEWLALIDWDDNKYHTTSLKTRLTISKDTSKNQVVLTMTNMDPVDTATYYCARIPGFLRYRNRYYYYGMDVWGQGTTVTVSS
# VL: ELVLTQPPSVSAAPGQKVTISCSGSSSNIGNNYVSWYQQLPGTAPKLLIYDNNKRPSGIPDRFSGSKSGTSATLGITGLQTGDEADYYCGTWDSSLSAGVFGGGTELTVL
# notes: also called CT-P59; Regdanvimab
# Assays:
# [1] = target: T1, MERS-CoV RBD; test: Octet (BLI) specificity, Fig. 12
# [2] = target: SARS-CoV S1 (SARS-CoV, UniProt P59594 14-667); test: Octet (BLI) specificity, Fig. 12
# [3] = target: T2, SARS-CoV-2 spike D614, on pseudovirus (SARS-CoV-2, UniProt P0DTC2 14-1273); test: cell-based or functional assay
# [4] = target: T2, SARS-CoV-2 spike D614, on pseudovirus; test: cell-based or functional assay; remark: listed apart in the source
# [5] = target: T2, SARS-CoV-2 spike D614, on pseudovirus; test: cell-based or functional assay; remark: listed apart in the source
binder,measurement,setting,value
B1,binding result,[1],no binding
same,binding result,[2],no binding
same,pseudovirus 중화능 IC50,[3],0.535 ng/mL
same,pseudovirus 중화능 IC50,[4],0.378 ng/mL
same,pseudovirus 중화능 IC50,[5],0.35 ng/mL
